These results are taken from the supplement of paper PMC10567573.

The data set is described as follows: protein stability index of a GFP-peptide fusion (GPS, HEK-293T) (PSI 1-6); higher = more stable.
Setting [1] is: treatment: DMSO, c terminus: a fixed tail appended.
[2] abbreviates: treatment: MLN4924 1 uM, 8 h, c terminus: a fixed tail appended.

± gives the standard deviation.
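Note: 24-mer peptide tiles fused after GFP, lentivirally expressed, FACS-sorted into six equal bins by GFP/DsRed ratio, decoded by Illumina sequencing, PSI is the read-weighted mean bin number.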

Sequence SRFVETLVVADDKMAAFHGAGLKR [ADAMTS4] returned a protein stability index under setting [1] of 3.46 ± 0.089 and a protein stability index under setting [2] of 4.26 ± 0.11.

On to SRLLFFLLGFLRIRVRGQRASRLQ [LPCAT4], for which the protein stability index runs as follows: under setting [1], 2.35 ± 0.09; under setting [2], 2.58 ± 0.31.

With SRLQLLGATCMFVASKMKETIPLT [CCND1], the protein stability index reads like this: under setting [1], 2.69 ± 0.44; under setting [2], 2.69 ± 0.66.

Regarding SRWSEASRAILQRVQAAAFGPGQT [ALKBH7], the protein stability index stood at 3.01 ± 0.38 under setting [1] and 3.19 ± 0.39 under setting [2].

As to SSHEVKALGAMWKLHKSQLSQALN [TRIM9], the protein stability index is 2.7 ± 0.41 under setting [1] and 2.58 ± 0.27 under setting [2].

Regarding SSQESGEEAGSQENHPQESKGQPR [CHGB], the protein stability index stood at 5.7 ± 0.16 under setting [1] and 5.73 ± 0.097 under setting [2].

Take SSREVFTSSSSSSSRQTRPILKEQ [KRT16]: the protein stability index is, setting by setting: under setting [1], 4.67 ± 0.11; under setting [2], 4.7 ± 0.3.

STLKKALPTLSHIQEAQSAWKDDF [YJU2B]: the protein stability index is, setting by setting: under setting [1], 3.53 ± 0.36; under setting [2], 3.75 ± 0.09.

With STMLGVFREDPKTREEFLTLIRS [GCH1], the protein stability index amounted to 2.38 ± 0.64 (treatment: DMSO, c terminus: native) and 2.84 ± 0.34 (treatment: MLN4924 1 uM, 8 h, c terminus: native).

Take STNRRRLSELLRYHTSQSGDEMTS [HSP90AB1]: the protein stability index is, setting by setting: under setting [1], 3.85 ± 0.15; under setting [2], 4.11 ± 0.12.

As for STPQGKGEVVKIPSRVHGSLEPFR [PWWP2B], the protein stability index reads like this: under setting [1], 3.86 ± 0.16; under setting [2], 4.03 ± 0.28.

As to SVAFAVAWFLPMPQKSLFFHHIPS [SLC19A2], the protein stability index reads like this: under setting [1], 3.65 ± 0.2; under setting [2], 3.31 ± 0.23.

In the case of SVLVILISIVIFCLETLPEFRDDR [KCNA4], the protein stability index runs as follows: under setting [1], 2.99 ± 0.29; under setting [2], 2.96 ± 0.5.

Take SVPASDPRSCSSGPAGPYLLSKKG [PLEKHN1]: the protein stability index is 4.65 ± 0.15 under setting [1] and 4.69 ± 0.089 under setting [2].

Turning to SVSLNKTARPFGAPPPADSAPQQN [PDLIM7], the protein stability index reads like this: under setting [1], 4.42 ± 0.11; under setting [2], 4.46 ± 0.13.

For the sequence SVTEYRLDGHTISDLSRSSRGELI [MYBL2], the protein stability index is, setting by setting: under setting [1], 3.67 ± 0.41; under setting [2], 3.67 ± 0.38.

In turn, SWLESCIVGWRCRVGQWVRMENVT [GMPPB] displayed a protein stability index under setting [1] of 2.79 ± 0.63 and a protein stability index under setting [2] of 2.69 ± 0.76.

On to SWNNNDRSLNVFVKEDDKLIFHRH [SPSB1], for which the protein stability index is, setting by setting: under setting [1], 3.17 ± 0.13; under setting [2], 3.29 ± 0.21.

On to SYEKAVKTRVDLKELGQSQKEQGL [PDZK1], for which the protein stability index by setting is: under setting [1], 4.75 ± 0.15; under setting [2], 4.84 ± 0.12.

On to SYYIIQHKPKNSEELYKEIDGVAT [PTPRD], for which the protein stability index reads like this: under setting [1], 2.98 ± 0.4; under setting [2], 3.18 ± 0.66.

TAFNFFKMAVSRHLTRGRKMAHVI [BRF1]: the protein stability index is, setting by setting: under setting [1], 2.66 ± 0.61; under setting [2], 2.33 ± 0.36.

As to TALLSSGFSLEDPQTHSNRIYRMI [HSP90AB1], the protein stability index by setting is: under setting [1], 2.6 ± 0.36; under setting [2], 2.56 ± 0.26.

TANCEACTLGICGQGLKSYMTKPS [RTP4]: the protein stability index is, setting by setting: under setting [1], 2.89 ± 0.025; under setting [2], 3.01 ± 0.26.

Turning to TAQVQKDARIGEAEAKRDAGIREA [FLOT1], the protein stability index is, setting by setting: under setting [1], 5.34 ± 0.16; under setting [2], 5.31 ± 0.19.

TARFQRNHRLISEILSESVVPDVR [SMARCE1] had a protein stability index under setting [2] of 3.23 ± 0.11.

For TASSISSSGGSSGSSSDNRTYRYS [DYRK1B], the protein stability index under setting [1] came to 4.62 ± 0.051 and the protein stability index under setting [2] is 4.67 ± 0.15.

Regarding TATMKDLEAEVKDTTRVENLIKSE [R3HDM1], the protein stability index stood at 5.36 ± 0.17 under setting [1] and 5.46 ± 0.23 under setting [2].

For the sequence TAVAQGGWRSLWLGWGPTALRDVP [SLC25A39], the protein stability index was found to be 2.45 ± 0.14 under setting [1] and 1.89 ± 0.17 under setting [2].

Regarding TCPSSSTASSISSSGGSSGSSSDN [DYRK1B], the protein stability index reads like this: under setting [1], 5.35 ± 0.16; under setting [2], 5.48 ± 0.21.

For TCRPPSSSESSSDSDNSGGGGGGG [ANKRD17], the protein stability index was found to be 5.44 ± 0.24 under setting [1] and 5.43 ± 0.26 under setting [2].

In turn, TDRRVLLMFLDICSELNKLCQHFE [SPACA9] came in with a protein stability index under setting [1] of 2.44 ± 0.56 and a protein stability index under setting [2] of 2.38 ± 0.42.

Regarding TEIAEQEGNQKGEQATSLAILRVI [KCNA1], the protein stability index was 3.75 ± 0.41 under setting [1] and 3.56 ± 0.2 under setting [2].

With TEKQNFLLFDMTTHPVTNTTEKQR [GOLPH3L], the protein stability index by setting is: under setting [1], 4.31 ± 0.18; under setting [2], 4.4 ± 0.32.

As to TETREEDVTDEHGEREPFAETDEH [FAM9B], the protein stability index by setting is: under setting [1], 5.69 ± 0.061; under setting [2], 5.63 ± 0.26.

In the case of TFICYVASSASAFLTAPLLEFLLA [CMTM3], the protein stability index runs as follows: under setting [1], 3.36 ± 0.35; under setting [2], 2.98 ± 0.39.

With TFNFISSLKAICTEIANCSLKVKF [PLD5], the protein stability index is, setting by setting: under setting [1], 2.68 ± 0.56; under setting [2], 3.29 ± 0.1.

As for TGEAGEELDLRLRLAQPSSPEVLT [RTN2], the protein stability index is, setting by setting: under setting [1], 4.9 ± 0.41; under setting [2], 5.01 ± 0.29.

With TGEKLLELNGHTQKITAIITFPSL [WDR41], the protein stability index runs as follows: under setting [1], 2.45 ± 0.58; under setting [2], 2.3 ± 0.55.

As for TGIVSVAFLLLPLPDELGSQLPQV [MOSPD3], the protein stability index runs as follows: under setting [1], 2.75 ± 0.59; under setting [2], 2.72 ± 0.86.

Sequence TGVELAPRSAEPGYLVTKVVAVDR [PCDHGA10] displayed a protein stability index under setting [1] of 3.94 ± 0.34 and a protein stability index under setting [2] of 3.93 ± 0.084.

As for TGYLSTMVGLILGPFGINHGIELH [PCMTD1], the protein stability index is, setting by setting: under setting [1], 3.29 ± 0.44; under setting [2], 3.35 ± 0.25.

Consider THGALCLELLVNNGADVNIQSKDG [ANKRD44], for which the protein stability index is, setting by setting: under setting [1], 3.99 ± 0.22; under setting [2], 4.01 ± 0.37.

For THICRSHNSINQSLDESVIYGPGN [SLC2A12], the protein stability index reads like this: under setting [1], 3.62 ± 0.18; under setting [2], 3.74 ± 0.2.

On to TIKKRLENNYYWSASECMQDFNTM [BRD3], for which the protein stability index is, setting by setting: under setting [1], 2.08 ± 0.47; under setting [2], 2.15 ± 0.43.

Consider TIKLWKITERDKRPEGYNLKDEEG [PPP2R2C], for which the protein stability index runs as follows: under setting [1], 4.05 ± 0.25; under setting [2], 4.03 ± 0.17.

The sequence TIKPRRVEPVCSGLQAQILHCYRD [CHCHD6] registered a protein stability index under setting [1] of 2.98 ± 0.051 and a protein stability index under setting [2] of 2.98 ± 0.21.

Consider TIKSLSAELLKANEIIKKLQGDLK [SASS6], for which the protein stability index under setting [1] was found to be 2.16 ± 0.48 and the protein stability index under setting [2] worked out at 2.37 ± 0.36.

For TIQGVPLSSYISINSDTGVLYALR [PCDHGA10], the protein stability index by setting is: under setting [1], 2.19 ± 0.096; under setting [2], 2.14 ± 0.17.

The sequence TIVFLDKEVFASRISNPSDDNSCE [PCMTD2] had a protein stability index under setting [1] of 3.8 ± 0.4 and a protein stability index under setting [2] of 3.83 ± 0.21.

On to TLKFYCLPDNYEIIDSSLEDITYV [USP39], for which the protein stability index runs as follows: under setting [1], 2.18 ± 0.047; under setting [2], 2.29 ± 0.19.

As for TLQPPEFLYSHGVPRTLSPHQYHS [TBX5], the protein stability index amounted to 2.83 ± 0.14 under setting [1] and 3.06 ± 0.12 under setting [2].

Consider TLQSITWQMIEQIQFIKLFGMAKI [HNF4A], for which the protein stability index stood at 2.86 ± 0.6 under setting [1] and 2.87 ± 0.42 under setting [2].

For the sequence TLSISDVRTLSEPPDKGEEQVNFC [ZBTB22], the protein stability index turned out to be 4.94 ± 0.21 under setting [1] and 5.09 ± 0.22 under setting [2].

In the case of TLVQREEPLRILSKYHRFISFTLY [CDS2], the protein stability index is, setting by setting: under setting [1], 2.95 ± 0.8; under setting [2], 2.8 ± 0.86.

Take TMSIPVAMETDGPLFEDVQMLRKT [PPP2R5C]: the protein stability index stood at 4.22 ± 0.12 under setting [1] and 4.3 ± 0.1 under setting [2].

With TPASNHLPGWEDIESKIPLNMEEP [SLC19A2], the protein stability index was 5.28 ± 0.21 under setting [1] and 5.44 ± 0.066 under setting [2].

As for TPQEPWPGPTAPSPTSRPPWAVDP [PDLIM7], the protein stability index came to 4.19 ± 0.21 under setting [1] and 4.28 ± 0.093 under setting [2].

TPWALALLRTFDAGEFTGWEKVGS [RIPK4]: the protein stability index under setting [1] was determined as 2.29 ± 0.61 and the protein stability index under setting [2] worked out at 1.49 ± 0.13.

For TQATETTTTRHKRTANPSKTIDLG [CLINT1], the protein stability index by setting is: under setting [1], 4.88 ± 0.09; under setting [2], 5.05 ± 0.13.

TRLQDCYVDSPALTNIWMARTCAK [C22orf31]: the protein stability index reads like this: under setting [1], 2.47 ± 0.2; under setting [2], 2.69 ± 0.11.

Take TRQLSLAVKDGLIVETLTVGCKGS [ZMYND11]: the protein stability index by setting is: under setting [1], 3.17 ± 0.15; under setting [2], 3.49 ± 0.26.

As to TTLLRRYNIPHGPVVGSTRRLYEK [EMD], the protein stability index is, setting by setting: under setting [1], 3.14 ± 0.16; under setting [2], 3.25 ± 0.15.

For the sequence TTNVGRYPVGRFPSLHVVKVLLDC [FEM1A], the protein stability index reads like this: under setting [1], 2.52 ± 0.4; under setting [2], 2.48 ± 0.27.

For the sequence TTPLQLAIIRERSSCVKILLDHNA [ASB7], the protein stability index is 2.26 ± 0.16 under setting [1] and 2.34 ± 0.22 under setting [2].

With TTSTLKAWLNEHRKNPYPTKGEKI [IRX6], the protein stability index is 3.13 ± 0.44 under setting [1] and 3.37 ± 0.16 under setting [2].

In the case of TVAAETRAVIAWMEKIPFVLGGNL [CPXM2], the protein stability index under setting [1] was found to be 2.56 ± 0.86 and the protein stability index under setting [2] worked out at 2.71 ± 0.6.

Consider TVEDLFYNIATRRKALKNPSEEYG [MLH1], for which the protein stability index runs as follows: under setting [1], 3.02 ± 0.8; under setting [2], 3.06 ± 0.1.

Consider TVEKPGGKKVAVVLMDTQGAFDSQ [ATL3], for which the protein stability index reads like this: under setting [1], 4.18 ± 0.13; under setting [2], 4.16 ± 0.22.

As for TVMEKCSDGWWRGSYNGQIGWFPS [NCK2], the protein stability index runs as follows: under setting [1], 2.45 ± 0.51; under setting [2], 2.26 ± 0.37.

Take TVSTMYYLWMCSTLALLLNFLACL [SCAMP3]: the protein stability index runs as follows: under setting [1], 3.13 ± 0.22; under setting [2], 3.03 ± 0.63.

As for TVVEEPVDITPYLDQLDESLRDKV [INTS3], the protein stability index by setting is: under setting [1], 5.12 ± 0.16; under setting [2], 5.03 ± 0.33.

In the case of TVVPLDDATQEYKEKLQKCLEPLE [TRIM39], the protein stability index is, setting by setting: under setting [1], 5.27 ± 0.13; under setting [2], 5.22 ± 0.21.
